B1: rC/EBPβ-Ala^105: modified rat C/EBPβ with mutation of Ser^105 to Ala (SEQ ID NO:14), nonphosphorylatable mutant (protein, listed as Rattus norvegicus)
chain: MHRLLAWDAACLPPPPAAFRPMEVANFYYEPDCLAYGAKAARAAPRAPAAEPAIGEHERAIDFSPYLEPLAPAAADFAAPAPAHHDFLSDLFADDYGAKPSKKPADYGYVSLGRAGAKAAPPACFPPPPPAALKAEPGFEPADCKRADDAPAMAAGFPFALRAYLGYQATPSGSSGSLSTSSSSSPPGTPSPADAKAAPAACFAGPPAAPAKAKAKKAVDKLSDEYKMRRERNNIAVRKSRDKAKMRNLETQHKVLELTAENERLQKKVEQLSRELSTLRNLFKQLPEPLLASAGHC
B2: rC/EBPβ-Asp^105: modified rat C/EBPβ with mutation of Ser^105 to aspartic acid (SEQ ID NO:15), phosphorylation mimic (protein, listed as Rattus norvegicus)
chain: MHRLLAWDAACLPPPPAAFRPMEVANFYYEPDCLAYGAKAARAAPRAPAAEPAIGEHERAIDFSPYLEPLAPAAADFAAPAPAHHDFLSDLFADDYGAKPSKKPDDYGYVSLGRAGAKAAPPACFPPPPPAALKAEPGFEPADCKRADDAPAMAAGFPFALRAYLGYQATPSGSSGSLSTSSSSSPPGTPSPADAKAAPAACFAGPPAAPAKAKAKKAVDKLSDEYKMRRERNNIAVRKSRDKAKMRNLETQHKVLELTAENERLQKKVEQLSRELSTLRNLFKQLPEPLLASAGHC

System: hepatic stellate cells
Assay: Apoptosis of activated stellate cells transfected with C/EBPβ constructs, annexin-V-PE binding
Assay type: cell-based, mouse
Details: for Effect of expressed construct on apoptosis / survival of stellate cells: transfected cells on collagen type I matrix
Source text: FIG. 1 provides data showing that phosphorylation of C/EBPβ on Thr^217 is required for hepatic stellate cell survival. Panel A provides phosphopeptide maps of in vivo labeled endogenous C/EBPβ in day-4 quiescent and activated primary mouse stellate cells cultured from the time of isolation on EHS or collagen type I matrix, respectively. The arrow indicates the peptide containing Phospho-Thr^217 in activated cells. […] Panel B provides phosphopeptide maps of in vitro labeled C/EPBβ. Active p90RSK phosphorylated C/EPBβ, but not C/EBPβ-Ala^217 on Thr^217 in vitro (arrowheads). Panel C provides results for cells cultured on collagen type I transfected with MSV-C/EBPβ antisense (AS), MSV-C/EBPβ sense (S), or MSV-C/EBPβ-Ala^217 together with CMV-GFP (green fluorescent protein) and p90RSK (1 μg each), as indicated in the Figure. Four hours after transfection, annexin-V-PE binding to plasma membranes was determined. The values presented are the percentage of transfected cells (green) that were annexin-V-PE (+) (red) (P<0.05 for C/EBPβ AS, and C/EBPβ-Ala^217). Panel D provides results for cells transfected as in […] with vectors expressing dominant negative mutants for MEKK1, IκBα, or p90RSK, or treated with the proteasome inhibitor lactacystin (10 μM) (closed bars), and co-transfected with MSV-C/EBPβ-Glu^217 (1 μg each) (open bars) as indicated. Annexin-V-PE binding was determined as described for Panel A (P<0.05 for C/EBPβ-Glu^217). Panel E provides results for cells transfected as described for Panel C, with a dominant-negative p90RSK, treated with FAS (100 nM for 6 hours) or cultured in a serum-free medium for 6 hours (closed bars), and co-transfected with MSV-C/EBPβ-Glu^217 (1 μg each) (open bars), as indicated. Cell death was determined by nuclear staining with Hoechst 33342 (P<0.05 for C/EBPβ-Glu^217 in RSK mut and FAS-treated cells).
FIG. 4 provides results showing that C/EBPβ PThr^217 associates with procaspases 1 and 8, and inhibits their activation. Panel A provides schematic representations of C/EBPβ peptides. The activation (dotted bars), DNA binding (solid bars) and dimerization (hatched bars) domains are shown. […] Panel C provides results showing that C/EBPβ and procaspase 8 were detected in activated stellate cells isolated from C/EBPβ^+/+ mice by confocal microscopy using specific antibodies (Santa Cruz Biotechnology). Control C/EBPβ^−/− stellate cells were negative for C/EBPβ, positive for procaspase 8, and apoptotic. Panel D provides immunoblot results for MSV vectors expressing C/EBPβ-HA (hemagglutinin protein) peptides (0.3 μg) transfected into activated stellate cells. The expressed peptides were immunoprecipitated with anti-HA antibodies. C/EBPβ-PThr^217 was detected using a specific antibody, only in cells expressing wild-type C/EBPβ. […] RSK was associated with all C/EBPβ peptides. Neither C/EBPβ nor procaspases 1 and 8 were detected in C/EBPβ immunoprecipitates from cells expressing C/EBPβ AS. Reciprocal immunoprecipitations of procaspases and RSK confirmed these associations.
Adult male Sprague-Dawley rats and adult male C/EBPβ^+/+ and C/EBPβ^−/− (Screpanti et al., supra; and Buck et al., (1999), supra), C/EBPβ-Ala^217 and C/EBPβ-Asp^105 transgenic mice were used for the isolation of primary hepatic stellate cells (Houglum et al., supra). Primary hepatic stellate cells were isolated by collagenase/pronase perfusion and purified by a single step density Nycodenz gradient (Accurate Chemical & Scientific) as known in the art (See, Lee et al., (1995), supra). Cells were plated on type I collagen matrix (Becton Dickinson) or EHS matrix (Matrigel, Collaborative Biomedical Products). Cells were cultured with 10% fetal calf serum/10% fetal bovine serum and transfected with lipofectamine (GIBCO) for DNA vectors or with the Chariot reagent (Active Motif) for peptides (10 μM) as known in the art (See, Houglum et al., supra; and Morris et al., J. Biol. Chem., 274:24942-24946 (1999)). […]

Row | Molecule | Effect of expressed construct on apoptosis / survival of stellate cells | Rescue from induced apoptosis by expressed construct (apoptosis induced by dominant negative MEKK1, IκBα or RSK mutants or by lactacystin)
1 | C/EBPβ 216-253-Ala^217: C/EBPβ fragment 216-253 with Ala^217, lacking the activation and dimerization domains (KAVDKLSDEYKMRRERNNIAVRKSRDKAKMRNLETQHK; left off: small tags and cut ends) | induced apoptosis | –
2 | B1 | induced apoptosis | –
3 | B2 | – | rescued

From patent publication US8129349B2, “Treatment of disease by inducing cell apoptosis” (The Regents of the University of California, priority 2000, dated 2012)
